The target in assay [1] is T1, MBP-tagged FRLα C terminus (residues 612–1,094) (UniProt Q9JL26-1 612-1094).
T1 sequence: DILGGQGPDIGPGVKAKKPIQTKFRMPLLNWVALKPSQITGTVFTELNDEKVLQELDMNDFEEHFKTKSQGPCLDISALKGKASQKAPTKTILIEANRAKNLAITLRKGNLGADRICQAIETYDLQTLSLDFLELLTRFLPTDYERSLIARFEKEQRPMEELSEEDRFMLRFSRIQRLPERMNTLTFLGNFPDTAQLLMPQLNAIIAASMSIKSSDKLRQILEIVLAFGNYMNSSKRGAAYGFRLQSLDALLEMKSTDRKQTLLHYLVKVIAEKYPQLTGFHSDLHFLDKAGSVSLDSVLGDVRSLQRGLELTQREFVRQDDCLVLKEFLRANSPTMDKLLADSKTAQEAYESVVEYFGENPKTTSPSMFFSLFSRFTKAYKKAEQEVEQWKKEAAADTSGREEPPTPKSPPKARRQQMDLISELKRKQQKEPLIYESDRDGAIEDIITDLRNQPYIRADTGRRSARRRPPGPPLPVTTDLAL
Kind of assay: pull-down.

Assay [2] deals with T2, FRLα C terminus (residues 612–1,094), untagged (UniProt Q9JL26-1 612-1094).
T2 sequence: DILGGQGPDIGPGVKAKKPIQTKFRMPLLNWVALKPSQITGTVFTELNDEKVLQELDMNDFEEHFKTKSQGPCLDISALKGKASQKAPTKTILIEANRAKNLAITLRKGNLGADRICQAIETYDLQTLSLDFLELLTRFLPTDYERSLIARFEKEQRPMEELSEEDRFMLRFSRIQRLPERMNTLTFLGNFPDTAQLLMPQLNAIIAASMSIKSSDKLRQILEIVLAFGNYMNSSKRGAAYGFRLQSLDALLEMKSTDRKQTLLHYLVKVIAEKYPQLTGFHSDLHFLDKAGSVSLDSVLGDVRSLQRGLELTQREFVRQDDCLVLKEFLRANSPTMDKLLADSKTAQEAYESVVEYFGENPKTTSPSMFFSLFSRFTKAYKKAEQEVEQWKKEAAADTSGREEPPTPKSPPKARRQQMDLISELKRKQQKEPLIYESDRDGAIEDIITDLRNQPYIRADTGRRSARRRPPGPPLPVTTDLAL
Kind of assay: pull-down.

B1: GST-tagged FRLα N terminus (residues 1–450) (domain or fragment)
chain: MGNAAGSAEQPAGPTASPPKQPAVPKQPMPAAGELEERFTRVLNCMNLPPDKVQLLSQYDNEKKWELICDQERFQVKNPPAAYIQKLKSYLDTGGVSRKVASDWMSNLGFKRRVQESTQVLRELETSLRTNHIGWVQEFLNEENRGLDVLLEYLAFAQCSVAYDMESTDSVASGAEKSKPLDQSVEDLSKAPPSSVPKSRLTIKLTPAHSRKALRNSRIVSQKDDVHVCIMCLRAIMNYQSGFSLVMNHPACVNEIALSLNNKSPRTKALVLELLAAVCLVRGGHDIILAAFDNFKEVCGEQHRFEKLMEYFRHEDSNIDFMVACMQFINIVVHSVENMNFRVFLQYEFTHLGLDLYLERLRLTESDKLQVQIQAYLDNVFDVGTLLEETETKNAVLEHMEELQEQVATLTERLRDTENDSMAKIAELEKQLSQARKELETLRERFSEST
Turning to B1, the binding result in assay [1] and in assay [2] was “binds” throughout.

B2: GST–N terminus T126D of FRLα (residues 1–450) (domain or fragment)
chain: MGNAAGSAEQPAGPTASPPKQPAVPKQPMPAAGELEERFTRVLNCMNLPPDKVQLLSQYDNEKKWELICDQERFQVKNPPAAYIQKLKSYLDTGGVSRKVASDWMSNLGFKRRVQESTQVLRELEDSLRTNHIGWVQEFLNEENRGLDVLLEYLAFAQCSVAYDMESTDSVASGAEKSKPLDQSVEDLSKAPPSSVPKSRLTIKLTPAHSRKALRNSRIVSQKDDVHVCIMCLRAIMNYQSGFSLVMNHPACVNEIALSLNNKSPRTKALVLELLAAVCLVRGGHDIILAAFDNFKEVCGEQHRFEKLMEYFRHEDSNIDFMVACMQFINIVVHSVENMNFRVFLQYEFTHLGLDLYLERLRLTESDKLQVQIQAYLDNVFDVGTLLEETETKNAVLEHMEELQEQVATLTERLRDTENDSMAKIAELEKQLSQARKELETLRERFSEST
On to B2, for which the binding result in assay [2] is listed as “binds”.

These data come from PMC2064313 (The Journal of Cell Biology, 2006).
